Measurements taken from patent US20230357348A1 (AstraZeneca / MedImmune, published 2023).
Starred links: 1 amine or outer side, 2 acyl side, 3 side chain; linkers in the order of their positions; H or OH if unused. Non-standard residues stand in square brackets, D forms with d. Groups on a side chain read outwards from the residue. No end group written: not given here. *: point of attachment. C20 diacid = O=C(O)CCCCCCCCCCCCCCCCCCC(=O)*; C18 diacid = O=C(O)CCCCCCCCCCCCCCCCC(=O)*; γGlu = O=C(O)[C@H](CCC(=O)[*:2])N[*:1]; αMeF = C[C@](N)(Cc1ccccc1)C(=O)O; AEEA = NCCOCCOCC(=O)O; Aib = CC(C)(N)C(=O)O

B1: Peptide 443 (peptide)
peptide: H[Aib]QGTFTSDVSK[αMeF]LDKK([AEEA-AEEA-γGlu-C18 diacid])RARDFVRWLL[Aib]E-NH2
modifications: N-terminus assumed
SMILES: CC(C)C[C@H](NC(=O)[C@H](Cc1c[nH]c2ccccc12)NC(=O)[C@H](CCCNC(=N)N)NC(=O)[C@@H](NC(=O)[C@H](Cc1ccccc1)NC(=O)[C@H](CC(=O)O)NC(=O)[C@H](CCCNC(=N)N)NC(=O)[C@H](C)NC(=O)[C@H](CCCNC(=N)N)NC(=O)[C@H](CCCCNC(=O)COCCOCCNC(=O)COCCOCCNC(=O)CC[C@H](NC(=O)CCCCCCCCCCCCCCCCC(=O)O)C(=O)O)NC(=O)[C@H](CCCCN)NC(=O)[C@H](CC(=O)O)NC(=O)[C@H](CC(C)C)NC(=O)[C@](C)(Cc1ccccc1)NC(=O)[C@H](CCCCN)NC(=O)[C@H](CO)NC(=O)[C@@H](NC(=O)[C@H](CC(=O)O)NC(=O)[C@H](CO)NC(=O)[C@@H](NC(=O)[C@H](Cc1ccccc1)NC(=O)[C@@H](NC(=O)CNC(=O)[C@H](CCC(N)=O)NC(=O)C(C)(C)NC(=O)[C@@H](N)Cc1c[nH]cn1)[C@@H](C)O)[C@@H](C)O)C(C)C)C(C)C)C(=O)N[C@@H](CC(C)C)C(=O)NC(C)(C)C(=O)N[C@@H](CCC(=O)O)C(N)=O
B2: Peptide 440 (peptide)
peptide: H[Aib]QGTFTSDVSK[αMeF]LDKK([AEEA-AEEA-γGlu-C20 diacid])RARDFVRWLL[Aib]E-OH
modifications: N-terminus assumed
SMILES: CC(C)C[C@H](NC(=O)[C@H](Cc1c[nH]c2ccccc12)NC(=O)[C@H](CCCNC(=N)N)NC(=O)[C@@H](NC(=O)[C@H](Cc1ccccc1)NC(=O)[C@H](CC(=O)O)NC(=O)[C@H](CCCNC(=N)N)NC(=O)[C@H](C)NC(=O)[C@H](CCCNC(=N)N)NC(=O)[C@H](CCCCNC(=O)COCCOCCNC(=O)COCCOCCNC(=O)CC[C@H](NC(=O)CCCCCCCCCCCCCCCCCCC(=O)O)C(=O)O)NC(=O)[C@H](CCCCN)NC(=O)[C@H](CC(=O)O)NC(=O)[C@H](CC(C)C)NC(=O)[C@](C)(Cc1ccccc1)NC(=O)[C@H](CCCCN)NC(=O)[C@H](CO)NC(=O)[C@@H](NC(=O)[C@H](CC(=O)O)NC(=O)[C@H](CO)NC(=O)[C@@H](NC(=O)[C@H](Cc1ccccc1)NC(=O)[C@@H](NC(=O)CNC(=O)[C@H](CCC(N)=O)NC(=O)C(C)(C)NC(=O)[C@@H](N)Cc1c[nH]cn1)[C@@H](C)O)[C@@H](C)O)C(C)C)C(C)C)C(=O)N[C@@H](CC(C)C)C(=O)NC(C)(C)C(=O)N[C@@H](CCC(=O)O)C(=O)O
B3: Peptide 442 (peptide)
peptide: H[Aib]QGTFTSDVSK[αMeF]LDKK([AEEA-AEEA-γGlu-C18 diacid])RAQDFVRWLLE[Aib]G-NH2
modifications: N-terminus assumed
SMILES: CC(C)C[C@H](NC(=O)[C@H](Cc1c[nH]c2ccccc12)NC(=O)[C@H](CCCNC(=N)N)NC(=O)[C@@H](NC(=O)[C@H](Cc1ccccc1)NC(=O)[C@H](CC(=O)O)NC(=O)[C@H](CCC(N)=O)NC(=O)[C@H](C)NC(=O)[C@H](CCCNC(=N)N)NC(=O)[C@H](CCCCNC(=O)COCCOCCNC(=O)COCCOCCNC(=O)CC[C@H](NC(=O)CCCCCCCCCCCCCCCCC(=O)O)C(=O)O)NC(=O)[C@H](CCCCN)NC(=O)[C@H](CC(=O)O)NC(=O)[C@H](CC(C)C)NC(=O)[C@](C)(Cc1ccccc1)NC(=O)[C@H](CCCCN)NC(=O)[C@H](CO)NC(=O)[C@@H](NC(=O)[C@H](CC(=O)O)NC(=O)[C@H](CO)NC(=O)[C@@H](NC(=O)[C@H](Cc1ccccc1)NC(=O)[C@@H](NC(=O)CNC(=O)[C@H](CCC(N)=O)NC(=O)C(C)(C)NC(=O)[C@@H](N)Cc1c[nH]cn1)[C@@H](C)O)[C@@H](C)O)C(C)C)C(C)C)C(=O)N[C@@H](CC(C)C)C(=O)N[C@@H](CCC(=O)O)C(=O)NC(C)(C)C(=O)NCC(N)=O
B4: Peptide 439 (peptide)
peptide: H[Aib]QGTFTSDVSK[αMeF]LDRK([AEEA-AEEA-γGlu-C18 diacid])RAQDFVRWLL[Aib]E-NH2
modifications: N-terminus assumed
SMILES: CC(C)C[C@H](NC(=O)[C@H](Cc1c[nH]c2ccccc12)NC(=O)[C@H](CCCNC(=N)N)NC(=O)[C@@H](NC(=O)[C@H](Cc1ccccc1)NC(=O)[C@H](CC(=O)O)NC(=O)[C@H](CCC(N)=O)NC(=O)[C@H](C)NC(=O)[C@H](CCCNC(=N)N)NC(=O)[C@H](CCCCNC(=O)COCCOCCNC(=O)COCCOCCNC(=O)CC[C@H](NC(=O)CCCCCCCCCCCCCCCCC(=O)O)C(=O)O)NC(=O)[C@H](CCCNC(=N)N)NC(=O)[C@H](CC(=O)O)NC(=O)[C@H](CC(C)C)NC(=O)[C@](C)(Cc1ccccc1)NC(=O)[C@H](CCCCN)NC(=O)[C@H](CO)NC(=O)[C@@H](NC(=O)[C@H](CC(=O)O)NC(=O)[C@H](CO)NC(=O)[C@@H](NC(=O)[C@H](Cc1ccccc1)NC(=O)[C@@H](NC(=O)CNC(=O)[C@H](CCC(N)=O)NC(=O)C(C)(C)NC(=O)[C@@H](N)Cc1c[nH]cn1)[C@@H](C)O)[C@@H](C)O)C(C)C)C(C)C)C(=O)N[C@@H](CC(C)C)C(=O)NC(C)(C)C(=O)N[C@@H](CCC(=O)O)C(N)=O
B5: Peptide 441 (peptide)
peptide: H[Aib]QGTFTSDVSK[αMeF]LDKK([AEEA-AEEA-γGlu-C20 diacid])RAQDFVRWLL[Aib]E-NH2
modifications: N-terminus assumed
SMILES: CC(C)C[C@H](NC(=O)[C@H](Cc1c[nH]c2ccccc12)NC(=O)[C@H](CCCNC(=N)N)NC(=O)[C@@H](NC(=O)[C@H](Cc1ccccc1)NC(=O)[C@H](CC(=O)O)NC(=O)[C@H](CCC(N)=O)NC(=O)[C@H](C)NC(=O)[C@H](CCCNC(=N)N)NC(=O)[C@H](CCCCNC(=O)COCCOCCNC(=O)COCCOCCNC(=O)CC[C@H](NC(=O)CCCCCCCCCCCCCCCCCCC(=O)O)C(=O)O)NC(=O)[C@H](CCCCN)NC(=O)[C@H](CC(=O)O)NC(=O)[C@H](CC(C)C)NC(=O)[C@](C)(Cc1ccccc1)NC(=O)[C@H](CCCCN)NC(=O)[C@H](CO)NC(=O)[C@@H](NC(=O)[C@H](CC(=O)O)NC(=O)[C@H](CO)NC(=O)[C@@H](NC(=O)[C@H](Cc1ccccc1)NC(=O)[C@@H](NC(=O)CNC(=O)[C@H](CCC(N)=O)NC(=O)C(C)(C)NC(=O)[C@@H](N)Cc1c[nH]cn1)[C@@H](C)O)[C@@H](C)O)C(C)C)C(C)C)C(=O)N[C@@H](CC(C)C)C(=O)NC(C)(C)C(=O)N[C@@H](CCC(=O)O)C(N)=O
B6: Peptide 438 (peptide)
peptide: H[Aib]QGTFTSDVSK[αMeF]LDKK([AEEA-AEEA-γGlu-C18 diacid])RAQDFVRWLEA[Aib]G-NH2
modifications: N-terminus assumed
SMILES: CC(C)C[C@H](NC(=O)[C@H](Cc1c[nH]c2ccccc12)NC(=O)[C@H](CCCNC(=N)N)NC(=O)[C@@H](NC(=O)[C@H](Cc1ccccc1)NC(=O)[C@H](CC(=O)O)NC(=O)[C@H](CCC(N)=O)NC(=O)[C@H](C)NC(=O)[C@H](CCCNC(=N)N)NC(=O)[C@H](CCCCNC(=O)COCCOCCNC(=O)COCCOCCNC(=O)CC[C@H](NC(=O)CCCCCCCCCCCCCCCCC(=O)O)C(=O)O)NC(=O)[C@H](CCCCN)NC(=O)[C@H](CC(=O)O)NC(=O)[C@H](CC(C)C)NC(=O)[C@](C)(Cc1ccccc1)NC(=O)[C@H](CCCCN)NC(=O)[C@H](CO)NC(=O)[C@@H](NC(=O)[C@H](CC(=O)O)NC(=O)[C@H](CO)NC(=O)[C@@H](NC(=O)[C@H](Cc1ccccc1)NC(=O)[C@@H](NC(=O)CNC(=O)[C@H](CCC(N)=O)NC(=O)C(C)(C)NC(=O)[C@@H](N)Cc1c[nH]cn1)[C@@H](C)O)[C@@H](C)O)C(C)C)C(C)C)C(=O)N[C@@H](CCC(=O)O)C(=O)N[C@@H](C)C(=O)NC(C)(C)C(=O)NCC(N)=O
B7: Peptide 437 (peptide)
peptide: H[Aib]QGTFTSDVSK[αMeF]LDRK([AEEA-AEEA-γGlu-C20 diacid])RAQDFVRWLV[Aib]E-NH2
modifications: N-terminus assumed
SMILES: CC(C)C[C@H](NC(=O)[C@H](Cc1c[nH]c2ccccc12)NC(=O)[C@H](CCCNC(=N)N)NC(=O)[C@@H](NC(=O)[C@H](Cc1ccccc1)NC(=O)[C@H](CC(=O)O)NC(=O)[C@H](CCC(N)=O)NC(=O)[C@H](C)NC(=O)[C@H](CCCNC(=N)N)NC(=O)[C@H](CCCCNC(=O)COCCOCCNC(=O)COCCOCCNC(=O)CC[C@H](NC(=O)CCCCCCCCCCCCCCCCCCC(=O)O)C(=O)O)NC(=O)[C@H](CCCNC(=N)N)NC(=O)[C@H](CC(=O)O)NC(=O)[C@H](CC(C)C)NC(=O)[C@](C)(Cc1ccccc1)NC(=O)[C@H](CCCCN)NC(=O)[C@H](CO)NC(=O)[C@@H](NC(=O)[C@H](CC(=O)O)NC(=O)[C@H](CO)NC(=O)[C@@H](NC(=O)[C@H](Cc1ccccc1)NC(=O)[C@@H](NC(=O)CNC(=O)[C@H](CCC(N)=O)NC(=O)C(C)(C)NC(=O)[C@@H](N)Cc1c[nH]cn1)[C@@H](C)O)[C@@H](C)O)C(C)C)C(C)C)C(=O)N[C@H](C(=O)NC(C)(C)C(=O)N[C@@H](CCC(=O)O)C(N)=O)C(C)C

biological target: human GLP-1 receptor (hGLP-1R) (human, UniProt P43220 24-463); test: cell-based or functional assay

Row | hGLP-1R EC50 (pM) | Binder
1 | 33 | H[Aib]QGTFTSDVSK[αMeF]LETK([AEEA-AEEA-γGlu-C18 diacid])RARDFVQWLLE[Aib]G-OH [Peptide 445]
2 | 20.6 | B1
3 | 154 | B2
4 | 19.1 | B3
5 | 30.6 | B4
6 | 62.7 | B5
7 | 17.9 | B6
8 | 247 | H[Aib]QGTFTSDVSK[αMeF]LETKRARDFVQWLLE[Aib]G-OH (not fully specified (residue 17)) [Peptide 444]
9 | 26.9 | B7

biological target: human glucagon receptor (hGCGR) (human, UniProt P47871 26-477); test: cell-based or functional assay
Sequence (P47871 26-477): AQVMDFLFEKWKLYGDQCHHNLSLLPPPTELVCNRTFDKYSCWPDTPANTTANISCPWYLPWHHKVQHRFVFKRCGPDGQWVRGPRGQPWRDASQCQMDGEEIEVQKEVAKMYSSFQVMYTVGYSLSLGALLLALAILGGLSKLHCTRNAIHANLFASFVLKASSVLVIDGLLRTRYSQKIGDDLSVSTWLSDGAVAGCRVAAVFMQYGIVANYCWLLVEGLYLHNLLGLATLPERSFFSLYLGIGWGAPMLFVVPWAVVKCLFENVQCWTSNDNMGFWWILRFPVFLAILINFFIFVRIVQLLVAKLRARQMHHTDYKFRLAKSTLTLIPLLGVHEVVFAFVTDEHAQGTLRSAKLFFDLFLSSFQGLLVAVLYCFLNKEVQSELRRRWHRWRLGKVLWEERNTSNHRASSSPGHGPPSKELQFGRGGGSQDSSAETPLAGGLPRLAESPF

Row | hGluc-R EC50 (pM) | Binder
10 | 684 | H[Aib]QGTFTSDVSK[αMeF]LETK([AEEA-AEEA-γGlu-C18 diacid])RARDFVQWLLE[Aib]G-OH [Peptide 445]
11 | 22.4 | B1
12 | 81 | B2
13 | 35.8 | B3
14 | 57.7 | B4
15 | 72.8 | B5
16 | 68.9 | B6
17 | 1760 | H[Aib]QGTFTSDVSK[αMeF]LETKRARDFVQWLLE[Aib]G-OH (not fully specified (residue 17)) [Peptide 444]
18 | 96.9 | B7
